The source of these data is PMC11995678.

Where two headings read alike, the source gives them in different places.

Data set [1] deals with T1, His662 (UniProt position 662, MKQVKHIPESK). Put plainly: NMR. To be noted: 35 °C (default for NMR experiments; not restated for the titration), 50 mM NaCl, 20 mM Tris, 10 mM CHAPS, no CaCl2, formate and imidazole included as internal pH indicators, pH adjusted with 1 M HCl, Ca2+-free (apo), Ca2+-binding-deficient mutant, folded.
In data set [2] the target is T1, His662. To be noted: cited from earlier work.

“LETM1 F-EF-hand domain D676A/N678A (AEA) mutant (Homo sapiens; D676A;N678A)” registered a pKa in the data set with His662 [1] of 6.58 ± 0.06.
As for “LETM1 F-EF-hand domain, wild type (Homo sapiens)”, the pKa in the data set with His662 [2] (Ca2+-bound (holo) WT) is reported as roughly 6.28; with His662 [2] (Ca2+-free (apo) WT), roughly 6.39.

One may read the pKa as the negative logarithm of the acid dissociation constant.
